According to the supplement of paper PMC11780869:

System: Bacillus subtilis
Assay: cleaved RNA product abundance (RNA/gDNA barcode ratio) relative to median wild-type variant (ratio to wild type); higher = more accumulation of the downstream cleavage product
Summary of the method: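 Sequencing of barcodes from gel-selected, reverse-transcribed cleaved RNA and from genomic DNA, with UMI collapsing, yielded a per-construct RNA:gDNA ratio. Scaled to the median construct with the unmutated site, this ratio is the cleaved product abundance. The barcoded reporters (truncated aprE or tetM mRNAs with mutagenized RNase Y cleavage-site windows) were integrated into the B. subtilis chromosome, and cultures grew in LB at 37°C from OD600 0.0003 to 0.3.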

[1] = experiment (reporter, strain, medium): exp 4a: truncated aprE reporter, strain BJT201 with 2% xylose (RNase J1 expressed), cleavage site: cggR-gapA (positions -7 to +36 mutated)
[2] = experiment (reporter, strain, medium): exp 8a: truncated aprE reporter, strain BJT201 with 2% xylose (RNase J1 expressed), cleavage site: glnRA (positions -5 to +31 mutated)
[3] = experiment (reporter, strain, medium): exp 2b: truncated aprE reporter, strain BJT200, cleavage site: cggR-gapA (positions -7 to +36 mutated)

Sequence	cleaved RNA product abundance [1]	also measured
ACAGACGAAGGAGCCGCAAAGAAGTTCTTAAGGGATGAATAATACCTCAATATAAATATCTCTCACTTATTTAAA	0.14	–
ACAGACGAAGGAGCCGCAAAGAAGTTATTAAGAGATGAATAACCCCTCAATATAAATATCTCTCACTTATTTAAA	0.147	–
ACAGACGAAGGAGCCGCAAAGAAGTTATTAAGGTATGAATAATCCCGCAATATAAATATCTCTCACTTATTTAAA	0.0533	–
CGACATGTCCCGCTTCTTTCATTAATCCGTTCGCAACAGTTTTGCTATATACATTTACCTTTTAAGAGGAGGAAT	–	cleaved RNA product abundance [2]: 0.419
CGACATGTCCCGCTTCTTTCATTAATGCGTTAGCAACTGTGTTGCTATATACATTTACCTTTTAAGAGGAGGAAT	–	cleaved RNA product abundance [2]: 0.406
CGACATGTCCCGCTTCTTTCATTACTCCGTTAGCAACTGTTTTGCTATATACATCTACCTTTTAAGAGGAGGAAT	–	cleaved RNA product abundance [2]: 0.75
ACAGACGAAGGAGCCGCAAAGAAGTTATTAAGGGATGAATAATCCCTCAATATAACCATCTCTCACTTATTTAAA	0.296	–
ACAGACGAAGGAGCCGCAAAGAAGTTATTAAGGGATGAATAATTCCTCAATATAAAAATCTCTCACTTATTTAAA	0.86	–
ACAGACGAAGGAGCCGCAAACAAGTTATTAAGGGATGAATAATCCCTCATTATAAATATCTCTCACTTATTTAAA	0.337	–
ACAGACGAAGGAGCCGCATAGAAGTTATTAAGGGATGAATAACCCCTCAATATAAATATCTCTCACTTATTTAAA	–	cleaved RNA product abundance [3]: 0.457
ACAGACGAAGGAGCCGCAATGAAGTTATTAAGGGATGTATAATCCCTCAATATAAATATCTCTCACTTATTTAAA	1.53	–
ACAGACGAAGGAGCCGCAAAGAAGTTATTAAGGGATGAATACTCCCTAAATATAAATATCTCTCACTTATTTAAA	–	cleaved RNA product abundance [3]: 0.366
ACAGACGAAGGAGCCGCAAAGAAGTCTTTAAGGGATGAATAATCCCTCAATATAAATATCTCTCACTTATTTAAA	0.181	–
ACAGACGAAGGAGCCGCAAAGAAGTTATTAAGGGATGAATAATCCCTCAATATAAATATCTCTACTTATTTAAAG	–	cleaved RNA product abundance [3]: 1.09
CGACATGTCCCGCTTCTTTCATTAATCCGTTAGAAACTGTTTAGCTATATACATTTACCTTTTAAGAGGAGGAAT	–	cleaved RNA product abundance [2]: 0.295
CGACATGTCCCGCTTCTTTCATTAATTCGTTAGCACCTGTTTTGCTATATACATTTACCTTTTAAGAGGAGGAAT	–	cleaved RNA product abundance [2]: 0.658
ACAGACGAAGGAGCCGCAAAGAAATTATTTAGGGATGAATAATCCCTCAATATAAATATCTCTCACTTATTTAAA	0.718	–
ACAGACGAAGGAGCCGCAAAGAAGTTATTAAGGCATGAATAATCCCCCAATATAAATATCTCTCACTTATTTAAA	0.0993	cleaved RNA product abundance [3]: 0.11
ACAGACGAAGGAGCCGCAAAGAAGTTATTAAGGGATGAATAATCCCTCAAAATAAATATCTCTCACTTATTTAAA	0.393	cleaved RNA product abundance [3]: 0.302; cleaved RNA product abundance (experiment (reporter, strain, medium): exp 6: tetM reporter, strain 168, cleavage site: cggR-gapA (positions -7 to +36 mutated)): 0.369
ACAGACGAAGGAGCCGCAAAGAAGTTATTAAGGGATGAAAAATCCCTCAATAAAAATATCTCTCACTTATTTAAA	0.217	–
ACAGACGAAGGAGCCGCAAAGATGTTATTAAGGGATGAATAATCCTTCAATATAAATATCTCTCACTTATTTAAA	0.613	cleaved RNA product abundance [3]: 0.366

Sequence	cleaved RNA product abundance [1]	also measured
ACAGACGAAGGAGCCGCAAAGAAGTTATTAAGGGATGACTAATCCCTCAAGATAAATATCTCTCACTTATTTAAA	0.247	–
ACAGACGAAGGAGCCGCAAAGAAGTTATTAATGGATGAATAATCCCTCAATATAAAAATCTCTCACTTATTTAAA	0.156	cleaved RNA product abundance [3]: 0.133
ACAGACGAAGGAGCCGCAAAGAAGTTATTAAGAGATGTATAATCCCTCAATATAAATATCTCTCACTTATTTAAA	0.229	–
CGACATGTCCCGCTTCTTTCATTAATCCGTTAGCAACTGTTTTACTATATACATTTATCTTTTAAGAGGAGGAAT	–	cleaved RNA product abundance [2]: 0.588
ACAGACGAAGGAGCCGCAAAGAAGTTATTAAGGCATGAATAATCCCTGAATATAAATATCTCTCACTTATTTAAA	0.0864	cleaved RNA product abundance [3]: 0.102
CGACATGTCCCGCTTCTTTCATTATTCCGATATCAATTGTTTCGCTATATACATTTACCTTTTAAGAGGAGGAAT	–	cleaved RNA product abundance [2]: 0.147
ACAGACGAAGGAGCCGCAAAGAAGTTATTAAGGTATGAATAATCCCTCAATATTAATATCTCTCACTTATTTAAA	0.0645	–
CGACATGTCCCGCTTCTTTCATTAATCCGTTAGTAACTGTTTTGCTATATACATTTACCTTTTAAGAGGAGGAAT	–	cleaved RNA product abundance [2]: 0.379
ACAGACGAAGGAGCCGCAAAGATGTTATTACGGGATGAATAATCCCTCAATATAAATATCTCTCACTTATTTAAA	0.401	cleaved RNA product abundance [3]: 0.369
ACAGACGAAGGAGCCGCAAATAAGTTATTAAGGGATGAATAATCCCACAATATAAATAACTCTCACTTATTTAAA	0.22	–
ACAGACGAAGGAGCCGCAAAGAAGTTTTTAAGGGATGAATAATCCCTTAATATAAATATCTCTCACTTATTTAAA	0.798	cleaved RNA product abundance [3]: 0.844
ACAGACGAAGGAGCCGCGAAGAAGTTATTAAGAGATGAATAATCCCTCAATATAAATATCTCTCACTTATTTAAA	0.108	cleaved RNA product abundance [3]: 0.114
ACAGACGAAGGAGCCGCAAAGAAGTTAGTAAGGGATGAATAATCCCTCAATATAAATGTCTCTCACTTATTTAAA	–	cleaved RNA product abundance [3]: 0.187
ACAGACGAAGGAGCCGCAAAGAATTTATTAAGGGATGAATAATCTCTCAATATAAATATCTCTCACTTATTTAAA	0.844	–
ACAGACGAAGGAGCCGCATAGATGTTATTAAGGGATGAATAATCCCTCAATATAAATATCTCTCACTTATTTAAA	1.38	–
ACAGACGAAGGAGCCGCAAAGAAGTTATTAAGGCATGACTAATCCCTCAATATAAATATCTCTCACTTATTTAAA	0.102	cleaved RNA product abundance [3]: 0.101
ACAGACGAAGGAGCCGCAAAGAAGTTATTAAGGGATGAAGAATCCCTAAATATAAATATCTCTCACTTATTTAAA	0.44	–
ACAGACGAAGGAGCCGCAGAGAAGTTAATAAGGGATGAATAATCCCTCAATATAAATATCTCTCACTTATTTAAA	0.449	–
CGACATGTCCCGCTTCTTTCATTAATCCGTTAGCAAGTGTTATGCTATATACATTTACCTTTTAAGAGGAGGAAT	–	cleaved RNA product abundance [2]: 0.19
CGACATGTCCCGCTTCTTTCATTAATCCTTTAGCAACTGTATTGCTATATACATTTACCTTTTAAGAGGAGGAAT	–	cleaved RNA product abundance [2]: 0.83
ACAGACGAAGGAGCCGCAAAGAAGTTATTAAGGGATGAAAAATCCCTCAATATGAATATCTCTCACTTATTTAAA	0.151	–

Sequence	cleaved RNA product abundance [1]	also measured
ACAGACGAAGGAGCCGCAAAGAAGTTATTAAGGGATGATTAATCCATCAATATAAATATCTCTCACTTATTTAAA	–	cleaved RNA product abundance [3]: 0.124
ACAGACGAAGGAGCCGCAAAGAAGTCATTAAGGGATGATTAATCCCTCAATATAAATATCTCTCACTTATTTAAA	0.217	–
ACAGACGAAGGAGCCGCAAAGAAGTTATTAAGGGATGAATAATCCCTAAATATAAAAATCTCTCACTTATTTAAA	0.622	cleaved RNA product abundance [3]: 0.46
ACAGACGAAGGAGCCGCAAAGAAGTTATTAAGGGATGAATAATCACTCAATATTAATATCTCTCACTTATTTAAA	0.0358	–
CGACATGTCCCGCTTCTTTCATTAATCCGTTAGCAATTGTTTTGCTATATACCTTTACCTTTTAAGAGGAGGAAT	–	cleaved RNA product abundance [2]: 0.3
CGACATGTCCCGCTTCTTTCATTAATTCGTTAGCAACTGTTTTGCTATATACATGTACCTTTTAAGAGGAGGAAT	–	cleaved RNA product abundance [2]: 0.933
CGACATGTCCCGCTTCTTTCATTAATCCGTTATCAACTGTTTTGCTATAGACATTTACCTTTTAAGAGGAGGAAT	–	cleaved RNA product abundance [2]: 0.206
CGACATGTCCCGCTTCTTTCATTAAACCGTTAGAAACTGTTTTGCTATATACATTTACCTTTTAAGAGGAGGAAT	–	cleaved RNA product abundance [2]: 0.147
ACAGACGAAGGAGCCGCAAAGAAGTTATTAAGGGAGGAATAACCCCTCAATATAAATATCTCTCACTTATTTAAA	0.213	–
ACAGACGAAGGAGCCGCAAAAAAGTTATTAAGGTATGAATAATCCCTCAATATAAATATCTCTCACTTATTTAAA	0.17	cleaved RNA product abundance [3]: 0.121
CGACATGTCCCGCTTCTTTCATTAATCCGTTAGCAACTGTTATCCTATATACATTTACCTTTTAAGAGGAGGAAT	–	cleaved RNA product abundance [2]: 0.337
ACAGACGAAGGAGCCGCAAAGAAGTTATTAAGGGATGAATAATGCCACAATATAAATATCTCTCACTTATTTAAA	0.0904	–
CGACATGTCCCGCTTCTTTCATTAATCCGTTAGCAACTGTTGTGCTATAAACATTTACCTTTTAAGAGGAGGAAT	–	cleaved RNA product abundance [2]: 0.453
ACAGACGAAGGAGCCGCAAAGAAGTTATTAAGGTATGACTAATCCCTCAATATAAATATCTCTCACTTATTTAAA	0.107	–
CGACATGTCCCGCTTCTTTCATTAATCCGCCAGCAACTGTTTTGCTATATAGATTTACCTTTTAAGAGGAGGAAT	–	cleaved RNA product abundance [2]: 0.284
ACAGACGAAGGAGCCGCAAAGAAGTTATTAAGGGATGAATCAGCCCTCAATATAAATATCTCTCACTTATTTAAA	0.813	–
ACAGACGAAGGAGCCGCAAAGAAGTTATTAAGGAATGAATAATCCCTCACTATAAATATCTCTCACTTATTTAAA	–	cleaved RNA product abundance [3]: 0.0964
CGACATGTCCCGCTTCTTTCATTAATCCGTTAGCAACTGTTTTGCTATATGTATTTACCTTTTAAGAGGAGGAAT	–	cleaved RNA product abundance [2]: 0.45
ACAGACGAAGGAGCCGCAAAGAAGTTATTAAGGGATGAATAATGCCTCAATATAAAAATCTCTCACTTATTTAAA	0.159	cleaved RNA product abundance [3]: 0.15
